In patent US8013115B1, “Use of stabilised synthetic compounds in immunoassay” (Bio-Rad Pasteur, priority 1999, dated 2011):
Blank lines part the entries; values can stand above or below the molecule they belong to. [ ]: non-standard residue; d: D form. Hx = not defined here

What was measured:
[1] = type: physicochemical
Protocol: (§1) The stability of the compounds PEP 5, PEP 9 and PEP 10 was evaluated by ELISA assay, with chemiluminescence reading (signal expressed in Relative Luminescence Units or RLU), with the aid of the automated device Access® from the company Beckman, distributed by Bio-Rad (Marnes la Coquette, France), and then compared with that of a prior art noncyclized reference biepitopic compound (TRP 1116 Ac) analysed in the same manner.

[2] = Linearity of the dilution curves / dilutability, ELISA signal (RLU) versus dilution
Protocol: as §1
Standard for acceptance of the dilutions: the ratio experimental signal/theoretical signal at a given dilution should be equal to 1.00±0.2, for the compound to be dilutable. The dilutions giving signals of less than 100 000 RLU units should not be taken into account.
Results expressed in signal units (RLU)

[3] = target: antibodies of the ELISA assay with chemiluminescence reading on the automated device Access (Beckman); assay: ELISA immunoassay, chemiluminescence, Access device; compound diluted 1/10 000
[4] = target: antibodies of the ELISA assay with chemiluminescence reading on the automated device Access (Beckman); assay: ELISA immunoassay, chemiluminescence, Access device; compound diluted 1/40 000
[5] = target: antibodies of the ELISA assay with chemiluminescence reading on the automated device Access (Beckman); assay: ELISA immunoassay, chemiluminescence, Access device; compound diluted 1/50 000
[6] = target: antibodies of the ELISA assay with chemiluminescence reading on the automated device Access (Beckman); assay: ELISA immunoassay, chemiluminescence, Access device; compound diluted 1/20 000
[7] = target: antibodies of the ELISA assay with chemiluminescence reading on the automated device Access (Beckman); assay: ELISA immunoassay, chemiluminescence, Access device; compound diluted 1/100 000
[8] = target: antibodies of the ELISA assay with chemiluminescence reading on the automated device Access (Beckman); assay: ELISA immunoassay, chemiluminescence, Access device; compound diluted 1/300 000

Molecule: Ac-GSSNYRAYA-(TEPH)-AKK-Hx-PLELAGLG-(FAEL)-QDLCRQ-NH2 (SEQ ID NO: 6) (Ac-GSSNYRAYATEPHAKK[Hx]PLELAGLGFAELQDLCRQ-NH2; not fully specified; printed as Ac-GSSNYRAYA-(TEPH)-AKK-Hx-PLELAGLG-(FAEL)-QDLCRQ-NH2; reading uncertain; also: TEPH, Hx, FAEL described as non-natural linkers) [TRP 1116 Ac]
Stability ratio signal at DO + 24 H/signal at DO [1]: 0.77 | Experimental signal ([2]; dilution 1/10 000): 11 039 697 RLU | Experimental signal ([2]; dilution 1/20 000): 3 779 387 RLU | Experimental signal ([2]; dilution 1/40 000): 1 573 457 RLU | Experimental signal ([2]; dilution 1/50 000): 1 125 417 RLU | Experimental signal ([2]; dilution 1/100 000): 471 714 RLU | Experimental signal ([2]; dilution 1/300 000): 132 054 RLU

Experimental signal (RLU) [3]: 1.1e+07 RLU | Experimental signal (RLU) [4]: 1.57e+06 RLU | Experimental signal (RLU) [5]: 1.13e+06 RLU | Experimental signal (RLU) [6]: 3.78e+06 RLU | Experimental signal (RLU) [7]: 472000 RLU | Experimental signal (RLU) [8]: 132000 RLU
B1: peptide TRP 1116 Ac: Ac-…-(TEPH)-AKK-Hx-PLELAGLG-(FAEL)-QDLCRQ-NH2 (peptide)
peptide: Ac-GSSNYRAYATEPHAKK[Hx]PLELAGLGFAELQDLCRQ-NH2
modifications: reading uncertain; also: printed as Ac-GSSNYRAYA-(TEPH)-AKK-Hx-PLELAGLG-(FAEL)-QDLCRQ-NH2
